This passage reports EC50(nM), dual-luciferase reporter gene assay, iLite FGF21 assay ready cells results from patent EP4700044A1, “PROTEIN ANALOGUE AND USE THEREOF” (Shanghai Duomirui Biotechnology., Ltd., priority 2023, dated 2024).

This test deals with FGFR1c (UniProt P11362). Description: cell-based or functional assay.
Sequence of FGFR1c (P11362 22-822): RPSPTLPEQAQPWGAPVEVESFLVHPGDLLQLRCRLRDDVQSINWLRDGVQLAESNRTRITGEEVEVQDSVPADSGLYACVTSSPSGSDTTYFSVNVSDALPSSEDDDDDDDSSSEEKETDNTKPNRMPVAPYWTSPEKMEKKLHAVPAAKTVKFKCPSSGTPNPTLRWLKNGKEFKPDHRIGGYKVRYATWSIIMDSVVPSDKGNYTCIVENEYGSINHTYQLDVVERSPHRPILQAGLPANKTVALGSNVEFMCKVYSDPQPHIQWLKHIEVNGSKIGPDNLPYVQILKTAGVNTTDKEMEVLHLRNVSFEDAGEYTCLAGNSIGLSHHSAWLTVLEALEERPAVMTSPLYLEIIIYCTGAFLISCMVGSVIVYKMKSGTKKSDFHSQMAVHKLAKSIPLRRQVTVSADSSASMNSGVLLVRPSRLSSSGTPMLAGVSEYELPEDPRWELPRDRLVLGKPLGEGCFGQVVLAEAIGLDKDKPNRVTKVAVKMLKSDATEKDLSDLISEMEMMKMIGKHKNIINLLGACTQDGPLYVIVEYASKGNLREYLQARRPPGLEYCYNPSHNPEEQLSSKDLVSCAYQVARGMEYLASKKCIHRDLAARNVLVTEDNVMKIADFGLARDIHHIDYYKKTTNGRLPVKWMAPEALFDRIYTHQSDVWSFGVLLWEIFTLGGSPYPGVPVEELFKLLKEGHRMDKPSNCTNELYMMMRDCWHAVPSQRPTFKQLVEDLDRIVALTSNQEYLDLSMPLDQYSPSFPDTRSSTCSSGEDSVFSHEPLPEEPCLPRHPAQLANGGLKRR
Substance “Human mature FGF21 fusion protein with a N-terminal PAS15 modification (PAS15FGF21) (from UniProt Q9NSA1 29-209) (ligand)” had an EC50(nM), dual-luciferase reporter gene assay, iLite FGF21 assay ready cells of 0.22 nM.
Take “Human mature FGF21 fusion protein with a N-terminal PAS30 modification (PAS30FGF21) (ligand)”: the EC50(nM), dual-luciferase reporter gene assay, iLite FGF21 assay ready cells turned out to be 0.3 nM.
In the case of “Human mature FGF21 fusion protein with a N-terminal PAS50 modification (PAS50FGF21) (ligand)”, the EC50(nM), dual-luciferase reporter gene assay, iLite FGF21 assay ready cells turned out to be 0.4 nM.
Turning to “Human mature FGF21 fusion protein with a N-terminal PAS100 modification (PAS100FGF21) (ligand)”, the EC50(nM), dual-luciferase reporter gene assay, iLite FGF21 assay ready cells was 0.62 nM.
Take “Human mature FGF21 fusion protein with a N-terminal PAS200 modification (PAS200FGF21) (ligand)”: the EC50(nM), dual-luciferase reporter gene assay, iLite FGF21 assay ready cells was determined as 1.98 nM.
